In assay [1] the target is HIV-1 BG505 Env trimer (HIV-1 (strain BG505), UniProt Q2N0S6).
Assay [2] has as its target HIV-1 C1080 Env trimer, stabilized in the prefusion-closed state (HIV-1 (CRF01_AE strain C1080)).

B1: J038 (antibody, V domains shown)
VH: QLHLQESGPGLVRPSETLSLTCDVSGGAFNDAYCSWIRRFPGGGLEWIGRISGRDGYVESNPALTGRVTMSIDATWKKIVLRLTSMTASDTATYFCAGETPEDDFGYYQPYFKTWGQGLGVTVSS
VL: DIQLIQSPSSVSASLGDRVTITCRSTQGIGSDLAWYQATPGTAPKLLIYNSFALHKGVPSRFSGSGSGTEFSLTITGLQPEDFATYYCQHYRRLPLTFGGGTNIEVK
On to B1, for which the binding result in assay [1] and in assay [2] was “binds” throughout.

For the origin of these results see PMC9130890 (Advanced Science, 2022).
